Results from the supplement of paper PMC10567573.

B1: FBF1 (parent)
chain: FGDSPKAEKRQIGDQEGPRPARST
B2: INTS3 (parent)
chain: DLNSKGKKREFRFHPIKETVVEEP

Variants of: B1
Experiment: protein stability index of a GFP-peptide fusion (GPS, HEK-293T) (PSI 1-6); higher = more stable
Conditions: c terminus: a fixed tail appended
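Also: lentivirally expressed fusions sorted by FACS into six bins by GFP to DsRed ratio, PSI derived from sequencing read proportions per bin multiplied by bin number.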

Protein stability index: each site, then its substitutions
G17: D 5.24, I 4.34, L 4.77, V 4.42, F 4.57, E 5.34, P 5.54, M 4.83, T 4.67, W 4.17, A 5.52, H 4.83, Y 4.68, K 5.02, Q 5.15, N 5.06, S 5.46, C 4.94, R 5.1
R22: E 4.79, C 5.26, Q 5.16, L 5.38, T 4.8, F 4.49, D 5.27, H 4.97, K 4.92, A 5.15, M 5.72, P 5.64, I 5.46, W 3.86, N 5.66, S 5.4, G 4.92
P20: G 3.96, T 5.08, V 4.54, K 4.72, I 4.84, Q 5.39, Y 4.91, F 4.57, W 4.58, M 4.96, R 5.26, H 4.95, L 4.46, A 5.25, D 5.07, N 4.89, E 5.58, S 5.02
E16: H 4.21, K 4.81, Y 4.14, M 4.57, V 4.99, P 5.09, I 4.83, C 4.79, Q 5.19, N 4.98, F 4.55, A 4.55, D 5.75, R 5.02, T 5.03, G 3.41, S 5.27, L 4.66, W 3.48
D14: Q 4.42, M 4.1, G 4.71, Y 4.54, K 4.5, S 4.84, I 4.38, R 4.82, W 4, N 5.15, L 4.68, T 5, V 4.72, P 5.09, H 5
S23: T 5.12, A 5.25, L 4.98, M 5.01, H 5.53, N 5.5, V 5, G 5.7, Y 5.37, C 4.66, P 4.67, R 4.78, D 5.31, K 4.29, I 4.57, E 5.03
A21: N 5.34, Q 5.62, C 5.2, F 4.52, V 5.42, D 5.5, P 5.19, S 4.37, R 4.59, L 4.17, M 4.92, K 5.23, T 5.9, G 5.73, Y 4.86, H 4.93, I 4.77
Q15: D 5.65, V 4.81, F 4.32, S 5.72, N 4.69, T 4.96, I 4.65, M 5.03, C 4.23, H 3.53, R 4.28, W 4.25, Y 4.53, P 5.38
T24: N 5.34, C 4.96, P 5.25, F 4.83, V 4.67, W 4.34, Y 4.74, M 4.81, A 4.91, R 4.68, D 4.52, Q 5.62, E 5.3, H 4.98, I 4.45
P18: H 4.77, G 5.33, L 5.02, K 5.21, C 5.22, V 4.96, R 4.78, E 5.54, I 4.17, Q 4.72, D 5.48, Y 4.5, T 4.69, S 4.87, M 4.71, A 5.27, N 4.15, F 4.85
R19: L 4.9, S 5.4, N 5.34, F 4.87, K 4.88, W 3.25, G 5.13, I 5.08, T 4.23, H 3.86, Y 4.21, C 5.4, Q 4.91, M 4.9, E 5.73, D 5.3

Variants of: B2
Experiment: as above
Conditions: c terminus: a fixed tail appended

Protein stability index, by site and new letter:
K5: W 2.32, S 2.35, E 2.88, N 2.56, F 1.88, G 2.54, I 2.32, R 2.25, T 2.39, V 2.76, M 2.05, Y 2.26, D 3.04, L 2.07, Q 2.44, H 2.48, C 2.05, A 2.43, P 2.69
K8: E 2.93, M 1.93, F 2.09, S 2.23, P 1.94, C 1.98, I 2.24, A 1.74, R 1.52, N 2.54, D 3.35, Q 2.77, T 2.36, L 1.96, H 2, W 2.27, G 2.08, V 1.73
G6: M 2.4, D 2.29, P 2.42, Q 2.3, N 2.37, C 2.23, I 1.59, S 2.03, V 2.56, T 2.38, Y 1.95, R 1.33, F 1.74, L 1.52, W 2.12, E 2.25, K 1.74, A 2.02, H 2.74
N3: A 1.83, W 1.8, L 2.16, P 1.87, F 1.51, I 1.88, V 1.53, C 1.78, Y 2.54, R 2.08, E 2.9, D 2.79, M 1.77, K 2.19, T 2.4, H 1.88, S 1.76, G 2.2, Q 2.33
L2: P 2.74, Q 2.69, D 2.82, R 2.34, N 2.96, H 2, T 2.28, C 2.22, I 2.36, E 2.26, V 3.25, G 2.8, F 2.2, Y 1.89, A 2.73, K 2.09, M 1.81, W 1.9, S 2.89
S4: R 2.23, W 1.92, D 2.6, L 2, I 2.12, Y 2.24, E 3.09, V 2.71, G 2.13, H 2.24, C 2.27, F 2.77, A 2.42, P 2.41, M 2.03, Q 1.88, T 2.49, K 2.08, N 1.99
K7: R 2.37, G 2.28, A 2.57, Y 1.94, M 2.25, T 2.79, H 2.35, F 1.72, W 2.58, P 1.94, C 1.86, Q 2.54, V 2.54, S 2.48, I 2.15, N 2.23, L 1.62, D 3.35, E 3.37
D1: E 2.43, T 1.52, Y 1.67, P 1.48, F 2.24, C 2.26, N 1.56, M 1.86, V 2.47, G 2.23, H 2.83, R 1.97, S 1.55, L 2.23, K 2.23, Q 2.02, I 1.28, A 2.01
